From paper PMC9076029
pKd: −log10 of the molar value. Like-named read-outs stand apart in the source and are kept apart here.

Tests used:
[1] = biological target: SARS-CoV-2 spike protein receptor binding domain, wild-type (SARS-CoV-2) (UniProt P0DTC2); test: ITC
[2] = biological target: SARS-CoV-2 spike protein receptor binding domain, wild-type (SARS-CoV-2) (UniProt P0DTC2); test: ITC; remark: listed apart in the source

Substance: CC12.1 single chain variable fragment (scFv)
- pKd [1]: 7.62
- pKd [2]: 7.55

Substance: P2B-2F6 single chain variable fragment (scFv)
- pKd [1]: 7.09
